The chains are these.
B1: G89 (VHH)
VHH: EVQLVESGGGLVQAGGSLSLSCAASGSINSINAMGWFRQAPGKQRELVATITRGGSTNYADSVKGRFTISIDNAKNTVYLQMNSLKPEDTAVYYCNADRGTDDGWLYDYWGQGTQVTVSS
B2: G37 (VHH)
VHH: EVQLVESGGGLVQAGDSLRLSCVASGDTFTSYTVGWFRQAPGKEQEFVAGISWSGRSTDYADFVKGRATISKDIAKVSLQMNALKPEDTAVYSCAAKKVDWSSDYVTNYDYDYRGRGTQVTVSS
B3: G80 (VHH)
VHH: QVQLVESGGGLVQAGASLRLSCAASRGTFSSYTMGWFRQAPGKERLFVASISRDGGTTYYADSVKGRFTISRDNAENILYLQMNSLKPEDTAVYYCAAASRHPSTWEVWGLEYYYWGQGTQVTVSS
B4: G90 (VHH)
VHH: DVQLVESGGGLVQAGGSLRLSCAASGLTFSNYAMGWFRQAPGKEREFAAGITWNGGASHYADSVKGRFTISRDNAQNTVYLQMNSLKPEDTAVYYCAARLGSVAYPGLRYDYWGQGTQVTVSS
B5: G97 (VHH)
VHH: EVQLVESGGGLVQAGGSLRLSCTASRSTFRVNPAGWYRQAPGKERELVARITSGGSTNYADSVKGRFTISRDNAKNTVYLQMNSLKPEDTAVYYCNVPCYMEDGYEHDAWGQGTQVTVSS
B6: G12 (VHH)
VHH: B5 VHH with E1Q, T23A, V31I, P33A, T52S, C99Y, M101R, H107Y
B7: G1 (VHH)
VHH: QVQLVESGGGLVQAGGSLRLSCAAPGSTFSTNIIAWYRQPPGKQRELVAAIGGPGSTNYADSVKGRFTISRDNAKNTGYLQMKSLKPDDTAVYYCNMVTQRGNEYWGQGTQVTVSS
B8: G25 (VHH)
VHH: EVQLVESGGGLVQAGGSLRLSCAASGRTFSGRTFSDYPMAWFRQAPGKEREFLATISTSGSRTYYADSVKGRFTISRDNAKDTVYLQMNSLKPEDAAIYYCAARQGSYYSDYNRALPGEYDYWGQGTQVTVSS
B9: G27 (VHH)
VHH: DVQLVESGGDLVQAGGSLRLSCSASGNIFKINDMDWYRQAPGKQRELVARISSSGSTNYADSVKGRFTISRDNGKNTVYLQMNRVKPEDTAVYYCNADVQVSRNYEYEYWGQGTQVTVSS
B10: G39 (VHH)
VHH: HVQLVESGGELVQSGSSLRLSCAASGFDLDDYAIGWFRQAPGKEREGVSCTSTSDGPTSYLDSVKGRFTFSRDNAKNTLYLQMNSLKPEDTAVYYCAAISHIFAEDAPAMGLCWDQRSAFWYWGQGTQVTVSS
B11: G23 (VHH)
VHH: QVQLVESGGGLVQPGGSLRLSCAASGFTFSVNTMSWVRQAPGKGREWVSGIESHGNTYYSDSVKGRFTISRDNAKNTLYLQMNSLKPEDTAVYYCATGIYGTTRNWGQGTQVTVSS
B12: G14 (VHH)
VHH: EVQLVESGGGLVQAGGSLRLSCAASGSTFDTNPIGWYRQAPGKQRDLVAMITSGGHTNYADSVKGRFTISRDNAKNTVYLQMNSLKPEDTAVYYCTVPHYREDGYEYHFWGQGTQVTVSS
B13: G15 (VHH)
VHH: B12 VHH with E1Q, F109C
B14: G19 (VHH)
VHH: B12 VHH with E1Q, D30S, P33A, I34V, G35D, K43N, M50T, T96A, H108R
B15: G20 (VHH)
VHH: DVQLVESGGGLVQAGGSLRLSCAASERTFSRYMLGWFRQAPGKEREFVGVMGWSDSDTYYGDAVKGRFTISRDNVKNTIYLQMKSLKPEDTAVYYCAASAYGSTRNHKLYEYWGQGTQVTVSS
B16: G42 (VHH)
VHH: HVQLVESGGGFVQAGGSLRLSCEASGRTFNVYTMGWFRQAPGKEREFVGSISWNGGSTYYADSVKGRFTISRDNAKNTVYLQMNSLEPEDTAVYYCAARRQSHLRLDLSVIDAWGKGTQVTVSS
B17: G50 (VHH)
VHH: EVQLVESGGGLVQAGGSLRLSCAASGRTFSRYHMGWFRQAPGKERDVVAAISWSGDSTYYADSVKGRFTISKDNAKNTVYLQMDSLKPEDTAVYYCATLSGWDGDTIFPAGSWGQGTQVTVSS
B18: G44 (VHH)
VHH: DVQLVESGGGLVQAGGSLRLSCVASGPIFSFSTGGWYRQAPGKQRELVAALTGGGNTNYADSVKGRFTISRDNAKNTVYLQMNLLKPEDTAVYYCQVMYYSGYDGYESTSWGQGTQVTVSS
B19: G8 (VHH)
VHH: QVQLVESGGGLVQAGGSLRLSCAASGITSSIASMGWFRQAPGKEEEFVARIRWNTDNTYYADSVKGRFTISRDNAQNTVYLQMNRLKPEDTAVYYCVARRGWSDLLYDYRGQGTQVTVSS
B20: G49 (VHH)
VHH: EVQLVESGGGLVQAGGSLRLSCAASRSTFSINAAGWYRQAPGKQRELVAAISSGGSANYADSVKGRFIISRDNAKNTVYLQMNSLKPEDTAVYYCRVPYYRDDGYEYYSWGQGTQVTVSS
B21: G41 (VHH)
VHH: DVQLVESGGGLVQAGGSLRLSCVASGHTVSNYAMAWFRQAPGKEREFVAGISWRASITYYRDSVKGRFTISRDNAKNTVYLQMSSLKPEDTAVYYCASDKTHYVSRGTSLVEYDYWGQGTQVTVSS
B22: G86 (VHH)
VHH: EVQLVESGGGLVQAGDSLRLSCAASGRTFSSYTMGWFRQAPGKEREFVAGIRWSGGSTYFTNYEDSVKGRFTISKDNAKNTVFLQMNSLRPEDTAVYYCAFTGHYSTYDSPQRYDYWGQGTQVTVSS
B23: G16 (VHH)
VHH: EVQLVESGGGLVQPGGSLRLSCAASGSTFSINAIGWYRQAPGKEREFVAALRWPGNIWYYADFVEGRITISRDNAKNTVYLQMNSLKPEDTAVYYCAARPENRGSYRDAATYDFWGQGTQVTVSS
B24: G45 (VHH)
VHH: EVQLVESGGGLVQPGGSLRLSCAASGSIFSINSMGWYRQAPGKQRELVAAITSGGSTNYANSVKGRFTISRNNARNTVWLQMNSLKPEDTAVYYCNADLNVVRGYSGDYHGSSDYWGQGTQVTVSS
B25: G79 (VHH)
VHH: DVQLVESGGGLVQAGGSLRLSCATSGRTFSTYAAGWFRQRPGKEREFVATIHWNDGRTLYADSVKGRFTLSRDNAQNTVYLQMNSLKPEDTAVYYCAAYTYRIGSYDVSTSQGYDYWGQGTQVTVSS
B26: G43 (VHH)
VHH: B25 VHH with D1E, F29S, A34M, N54G, D55V, R57S, L59I, Y99S, D115N
B27: G98 (VHH)
VHH: B25 VHH with D1Q, G16D, Y99S
B28: G30 (VHH)
VHH: QVQLVESGGGLVQAGGSLRLSCAASGRTINNYDMGWFRQAPGKEREFVAAITWSGRDTNYADSVKGRFTVSRDDAKNTVYLQMNTLSPEDTAVYYCASARIQFYRLVAATRTDYSYWGQGTQVTVSS
B29: G96 (VHH)
VHH: DVQLVESGGGLVQAGGSLKLSCAAFGVTFDINTIAWYRQAPGKQREFVAHITSGGTTYYADSVKARFTMSRDSAKNTVYLQMNNLKPEDTAVYYCNVNPTWPYSGEVDYWGQGTQVTVSS
B30: G91 (VHH)
VHH: EVQLVESGGGLVQAGGSLRLSCAASGRTFSDYPMAWFRQALGKEREFLATISTSGSRTMYADSVKGRFTISRDNAKNMMYLQMNSLKPEDAAVYYCAARQGSYYSDYNRALPGEYHYWGQGTQVTVSS
B31: G93 (VHH)
VHH: QVQLVESGGGLVQPGGSLRLSCAASGSGFSSSIIGWHRQAPGKQRELVAAIGGPGSTNYADSVKGRFTISRDNAKNTAYLQMNNLKPEDSAVYYCEATTRSGREYWGQGTQVTVSS
B32: G78 (VHH)
VHH: DVQLVESGGGLVQAGGSLRLSCTASQSILYINVMGWYRQAPGKQRELVAEIPTGGNTDYADSVKGRFTISRDNVKNTVSLQMNSLKPEDTAVYYCNVRGGVLSPYDYWGQGTQVTVSS

This note sets out measurements from patent US20230176070A1.

Substitutions are numbered along the chain they refer to.

For the assay, the target named is glutathione S-transferase [GST: P08515]. Description: indirect ELISA, GST coated. On the technique in general: In an ELISA, binding on a coated surface is turned into a signal by an enzyme label.
Chain of glutathione S-transferase [GST: P08515] (P08515 whole entry): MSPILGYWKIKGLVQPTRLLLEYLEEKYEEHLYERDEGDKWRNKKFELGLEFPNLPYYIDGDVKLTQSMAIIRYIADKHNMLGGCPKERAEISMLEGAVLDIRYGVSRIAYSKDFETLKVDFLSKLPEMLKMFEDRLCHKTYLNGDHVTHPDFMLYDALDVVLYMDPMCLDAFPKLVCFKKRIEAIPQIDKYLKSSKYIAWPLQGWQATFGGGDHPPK
With B1, the ELISA affinity (LogIC50 (oD450nm)) is 5.74.

Molecule B2 showed an ELISA affinity (LogIC50 (oD450nm)) of 1.78.

With B3, the ELISA affinity (LogIC50 (oD450nm)) stood at 4.43.

B4 displayed an ELISA affinity (LogIC50 (oD450nm)) of 5.83.

In turn, B5 showed an ELISA affinity (LogIC50 (oD450nm)) of 3.3.

As to B6, the ELISA affinity (LogIC50 (oD450nm)) is 4.21.

Consider B7, for which the ELISA affinity (LogIC50 (oD450nm)) was determined as 2.93.

B8 had an ELISA affinity (LogIC50 (oD450nm)) of 1.57.

Molecule B9 had an ELISA affinity (LogIC50 (oD450nm)) of 1.36.

In turn, B10 returned an ELISA affinity (LogIC50 (oD450nm)) of 1.65.

Molecule B11 returned an ELISA affinity (LogIC50 (oD450nm)) of 2.54.

The molecule B12 yielded an ELISA affinity (LogIC50 (oD450nm)) of 5.27.

B13 registered an ELISA affinity (LogIC50 (oD450nm)) of 4.61.

B14 returned an ELISA affinity (LogIC50 (oD450nm)) of 9.

B15 showed an ELISA affinity (LogIC50 (oD450nm)) of 2.43.

B16: the ELISA affinity (LogIC50 (oD450nm)) is 2.63.

Consider B17, for which the ELISA affinity (LogIC50 (oD450nm)) is 1.09.

In turn, B18 yielded an ELISA affinity (LogIC50 (oD450nm)) of 3.06.

For B19, the ELISA affinity (LogIC50 (oD450nm)) was found to be 4.66.

For the molecule B20, the ELISA affinity (LogIC50 (oD450nm)) was found to be 5.54.

The molecule B21 returned an ELISA affinity (LogIC50 (oD450nm)) of 1.02.

In turn, B22 registered an ELISA affinity (LogIC50 (oD450nm)) of 5.54.

With B23, the ELISA affinity (LogIC50 (oD450nm)) amounted to 5.68.

B24: the ELISA affinity (LogIC50 (oD450nm)) was determined as 3.17.

Consider B25, for which the ELISA affinity (LogIC50 (oD450nm)) came to 2.07.

Consider B26, for which the ELISA affinity (LogIC50 (oD450nm)) came out at 4.32.

In turn, B27 came in with an ELISA affinity (LogIC50 (oD450nm)) of 4.67.

In the case of B28, the ELISA affinity (LogIC50 (oD450nm)) turned out to be 4.86.

The molecule B29 showed an ELISA affinity (LogIC50 (oD450nm)) of 6.77.

Consider B30, for which the ELISA affinity (LogIC50 (oD450nm)) was 1.15.

Molecule B31 gave an ELISA affinity (LogIC50 (oD450nm)) of 2.16.

Molecule B32 returned an ELISA affinity (LogIC50 (oD450nm)) of 2.08.
